# Experimental data reported in paper PMC9045250.
# Target: no. 14 short peptide of the CD2V extracellular region (147-161) (African swine fever virus (China/2018/AnhuiXCGQ))
# Test: ELISA
# Settings: remark: other sources report otherwise
row,Binder,OD450
1,"monoclonal antibody 13G11 against CD2V (antibody, V domains shown) VH: MIMVQSQESGPDLVKPSQSLSLTCTVTGYSITSGYSWHWIRQFPGNKLEWMGYIHYSGVTNYNPSLKSRISITRDTSKNQFFLQLNSVTTEDTATYYCARAPLYYGNYVWFSYWGQGTTVTVSSK VL: MTCDIELTQSPASLSASVGETVTITCRASGNIHNYLAWYQQKQGKSPQLLVYNAKTLADGVPSRFSGSGSGSQYSLKINSLQPEDFGSYYCQHFWSTPWTFGGGTKLENQTDK",> 1 OD450
2,"monoclonal antibody 18A3 against CD2V (antibody, V domains shown) VH: MVKPGASVKISCKASGYSFTSYYIHWVKQRPGQGLEWIGWIFPGSGNTKYNEKFKGKATLTADTSSSTAYMQLSSLTSEDSAVYFCAQTGRVFAYWGQGTTVTVSSK VL: MTQSPSSLSASLGERVSLTCRASQEISGYLSWLQQKPDGTIKRLIYAASTLDSGVPKRFSGSRSGSDYSLTISSLESEDFADYYCLQYASYPWTFGGGTKLESNGE",> 1 OD450
